Reference: patent US20170101466A1 (published 2017)
One block for each binder: values may come before it.

Key:
[1] = target: T1, soluble cynomolgus BLyS (cynomolgus, UniProt A0A2K5V2X4 134-285); assay: ELISA, soluble cyBLyS
T1 construct: Soluble form; also called cyBLyS; Soluble cyBLyS

[2] = target: T2, soluble human BLyS (human, UniProt Q9Y275 134-285); assay: ELISA, soluble hBLyS
T2 construct: also called hBLyS; human BAFF (BLyS)

[3] = target: T2, soluble human BLyS; assay: blocking of biotinylated soluble hBLyS binding to immobilized mBR3
[4] = target: T3, soluble mouse BLyS (mouse, UniProt Q9WU72 127-309); assay: Biacore
T3 construct: europium-labelled in DELFIA; also called mBLyS; mouse BAFF (BLyS)

[5] = target: T2, soluble human BLyS; assay: Biacore
[6] = target: T3, soluble mouse BLyS; assay: ELISA, soluble mBLyS
[7] = target: T3, soluble mouse BLyS; assay: DELFIA competition, Eu-mBLyS binding to coated TACI
Protocol: (§1) After 5× washing with 200 ul/well of DELFIA 1× wash solution (PE, Cat #4010-0010), plates were blocked with 3% BSA purified from trace heavy metal amounts (PE, Cat #CR84-100) for 3 hours with shaking at room temperature. Plates were washed again five times at 200 μl/well with DELFIA wash solution.
(§2) The final 3 wells across the plate served as controls (2 wells contained 2,000 pM mAbs for negative and background controls while the third contained no mAbs for positive control). […] After 18-24 hrs at 4° C., plates were read on PE EnVision plate reader with laser excitation, LANCE/DELFIA top mirror, and emission filter Eu-615 with a delay of 400 μs. Data were fit to four parameter (variable slope) inhibition dose response curve using GraphPad PRISM 5.0 software.

[8] = target: T2, soluble human BLyS; assay: DELFIA competition, Eu-hBLyS binding to coated BR3
Protocol: as §1, §2

[9] = target: T3, soluble mouse BLyS; assay: Biacore, antibody captured on chip, BLyS injected, 1:1 model, 25 C
Protocol: (§3) Recombinant protein NG (Thermo Scientific, Cat #21186) was diluted to 100 μg/ml in 10 mM sodium acetate pH 4.0 and then immobilized on the surface of a pre-activated Series S CM5 Biacore chip (GE, Cat #BR-1005-34) using amine coupling. […] After the dissociation period, the chip was regenerated back to baseline by injecting 10 mM glycine pH 1.5 for 120 seconds over the four flow cells. […] The entire data set was fit to a 1:1 interaction model to give kₒₙ, koff, and Kd values. The assay was run at 25° C. in 1× biacore running buffer HBS-EP+ (GE, Cat #BR-1006-69).

[10] = target: T2, soluble human BLyS; assay: as above
Protocol: as §3

[11] = target: T3, soluble mouse BLyS; assay: DELFIA competition, Eu-mBLyS binding to coated BCMA
Protocol: as §1, §2

[12] = target: T2, soluble human BLyS; assay: DELFIA competition, Eu-hBLyS binding to coated TACI
Protocol: as §1, §2

[13] = target: T3, soluble mouse BLyS; assay: Biacore T100, binder captured by anti-human Fc, BLyS injected, 1:1 model
Protocol: (§4) A Series S CM5 Chip (GE Healthcare) was amine coupled with an anti-human Fc capturing antibody (GE Healthcare Human Fc Kit) to >10,000 RUs. Sample antibodies were diluted in 1×HBS-EP+ running buffer to 0.15 ug/mL and injected for 45 seconds at 10 uL/min. […] Biacore Evaluation software was used to fit the data to a 1:1 Binding Model.

[14] = target: T2, soluble human BLyS; assay: as above
Protocol: as §4

[15] = target: T2, soluble human BLyS; assay: DELFIA competition, Eu-hBLyS binding to coated BCMA
Protocol: as §1, §2

[16] = target: T3, soluble mouse BLyS; assay: DELFIA competition, Eu-mBLyS binding to coated BR3
Protocol: as §1, §2

[17] = target: T4, mouse APRIL (mouse, UniProt Q9D777 96-241, limits assumed); assay: Biacore, antibody captured, APRIL injected
T4 construct: Bought recombinant protein; also called mAPRIL
T4 sequence (looked up): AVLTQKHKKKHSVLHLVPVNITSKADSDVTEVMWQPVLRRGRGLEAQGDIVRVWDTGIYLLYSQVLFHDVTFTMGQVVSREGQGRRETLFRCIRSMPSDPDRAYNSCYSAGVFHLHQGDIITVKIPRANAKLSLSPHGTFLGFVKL
Protocol: (§5) Recombinant protein NG (Thermo Scientific, Cat #21186) was diluted to 100 μg/ml in 10 mM Sodium Acetate pH 4.0 and then immobilized on the surface of a pre-activated Series S CM4 Biacore chip (GE, Cat #BR-1005-34) using amine coupling. […] Binding response was measured as the difference in total RU increase during 300 second APRIL injection of each individual flow cell and the reference flow cell (e.g., Flow cell 2-1).

[18] = target: T5, human APRIL (human, UniProt O75888 105-250, limits assumed); assay: Biacore, antibody captured, APRIL injected
T5 construct: Bought recombinant protein; also called hAPRIL
T5 sequence (looked up): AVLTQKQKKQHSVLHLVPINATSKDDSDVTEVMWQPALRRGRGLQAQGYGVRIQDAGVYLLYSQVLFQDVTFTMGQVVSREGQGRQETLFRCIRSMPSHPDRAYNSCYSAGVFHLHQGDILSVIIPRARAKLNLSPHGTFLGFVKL
Protocol: as §5

- IC50 [1]: 320 pM
- IC50 [2]: 16000 pM
- IC50 [3]: 2970 pM
- Kd [4]: 22.4 pM
- Kd [5]: 4260 pM
- IC50 [6]: 50 pM
B1: 8A12 IgG expressed in HEK293 cells (antibody, V domains shown)
VH: QVQLVQSGGGLVQPGGSLRLSCAASGFTFSSYAMSWVRQAPGKGLEWVSAISGSGGSTYYADSVKGRFTISRDNSKNTLYLQMNSLRAEDTAVYYCAREGQGYDILTGYYTRGYYFDYWGQGTLVTVSS
VL: QSALTQPASVSGSPGQSITISCTGTSSDVGGYNYVSWYQQLPGKAPKLMIYEVSKRPSGVPDRFSGSKSGNTASLTISGLQAEDEADYYCSSYAGSSSWVFGGGTKLTVLG
notes: IgG from HEK293-FreeStyle cells

- IC50 [1]: 70 pM
- IC50 [2]: 150 pM
- IC50 [3]: 5310 pM
- Kd [4]: 45.6 pM
- Kd [5]: 1100 pM
- IC50 [6]: 70 pM
B2: 9F8 IgG expressed in HEK293 cells (antibody, V domains shown)
VH: QVQLQQSGAEVKKPGASVKVSCKASGYTFTSYYMHWVRQAPGQGLEWMGWINAGNGNTKYSQKFQGRVTITRDTSASTAYMELSSLRSEDTAVYYCARDNLSYDILTGYSFGGWFDPWGQGTLVTVSS
VL: QSALTQPASVSGSPGQSITISCTGTSSDIGRYNYVSWYQQRPGRAPKVIIYDVSSRPSGVSKRFSASKSGNTASLTISGLQAEDEAVYYCSSYTRITTLYVFGPGTKVTVLG
notes: as for B1

- IC50 [7]: 445 pM
- IC50 [8]: 87.3 pM
- Kd [9]: 234 pM
- koff [9]: 7.9e-05 s⁻¹
- kon [9]: 330000 M⁻¹ s⁻¹
- Kd [10]: 421 pM
- koff [10]: 5.5e-05 s⁻¹
- kon [10]: 130000 M⁻¹ s⁻¹
- IC50 [11]: > 2000 pM
- IC50 [12]: 0.74 pM
- Kd [13]: 232 pM
- koff [13]: 0.000224 s⁻¹
- kon [13]: 967000 M⁻¹ s⁻¹
- Kd [14]: 68 pM
- koff [14]: 2.5e-05 s⁻¹
- kon [14]: 368000 M⁻¹ s⁻¹
- IC50 [15]: 17 pM
- IC50 [16]: > 2000 pM
- binding result [17]: no binding (tested: 50 nM)
- binding result [18]: no binding (tested: 50 nM)
B3: 6C10 IgG1 F243A/V264A double mutein expressed in Pichia pastoris (antibody, V domains shown)
VH: EVQLVQSGAEVKKPGASVKVSCKASGYTFTSYGISWVRQAPGQGLEWMGWISAYNGNTNYAQKLQGRVTMTTDTSTSTAYMELRSLRSDDTAVYYCARTYYDILTGYYYYYGMDVWGQGTTVTVSS
VL: EIVLTQSPGTLSLSPGERAMLSCRASQSVGNYLAWYQQKPGQAPRLLIYDASNRATGIPARFSGSGSGTDFTLTINSLEPEDFAVYYCQQRSNWPLTFGGGTKVEIKR
notes: IgG1 F243A/V264A (EU) double mutein, alpha-2,6-sialylated, from glycoengineered Pichia pastoris; also called 6C10-DM; 6C10-DM (Pichia)

- IC50 [1]: 100 pM
- IC50 [7]: 679 pM
- IC50 [8]: 121 pM
- Kd [9]: 334 pM
- koff [9]: 6.7e-05 s⁻¹
- kon [9]: 200000 M⁻¹ s⁻¹
- Kd [10]: 434 pM
- koff [10]: 5e-05 s⁻¹
- kon [10]: 120000 M⁻¹ s⁻¹
- IC50 [2]: 120 pM
- IC50 [11]: 98 pM
- IC50 [12]: 0.67 pM
- IC50 [3]: 330 pM
- Kd [4]: 21.6 pM
- Kd [5]: 510 pM
- IC50 [15]: 10.6 pM
- IC50 [16]: 784 pM
- binding result [17]: no binding (tested: 50 nM)
- binding result [18]: no binding (tested: 50 nM)
- IC50 [6]: 50 pM
B4: 6C10 IgG expressed in HEK293 cells (antibody, V domains shown)
VH: B3 VH
VL: B3 VL
notes: IgG from HEK293-FreeStyle cells; also called 6C10 (293)
